T1: canine CD20 (canine, UniProt Q3C2E2 1-297)
T1 chain: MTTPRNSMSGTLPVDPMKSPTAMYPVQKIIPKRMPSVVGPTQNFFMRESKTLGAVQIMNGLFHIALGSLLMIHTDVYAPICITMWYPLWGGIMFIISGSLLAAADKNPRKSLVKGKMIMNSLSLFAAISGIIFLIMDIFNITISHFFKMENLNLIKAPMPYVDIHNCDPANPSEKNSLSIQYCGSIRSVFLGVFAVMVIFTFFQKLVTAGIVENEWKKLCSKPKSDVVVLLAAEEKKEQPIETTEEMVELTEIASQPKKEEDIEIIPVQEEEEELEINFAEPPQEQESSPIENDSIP

T2: canine CD20 (UniProt Q3C2E2 1-297)
T2 chain: T1 chain

B1: PMX075 (antibody, V domains shown)
VH: EVQLVESGGDLVKPGGSLRLSCVASGITFSRYHMSWVRQAPGKGLQWVAFINTGRSSTNYADAVAGRFTISRDNAKNTLYLQMNGLTVEDTAVYYCSTLDYWGQGTLVTVSS
VL: SYVLTQLPSKSVTLKQPAHITCGGDNIGSKSVHWYQQKLGQAPILIIYYDNNRPTGIPERFSGANSGNTATLTISGALAEDEADYYCHVWDSSVNVFGGGTHLTVL
B2: PMX081 (antibody, V domains shown)
VH: EVQLVQSGGDLVKPGGSLRLSCVASGYTFTRYHMSWVRQAPGKGLQWVAFINSDGTGITYGDAVKGRFTISRDNAKNTLYLQMNSLRAEDTAIYYCTTFDSWGQGTLVTVSS
VL: B1 VL with S11N, N51S, N52R, H88Q, V94G
B3: PMX080 (antibody, V domains shown)
VH: EVQLVESGGDLVKPGGSLRLSCVASGLTFSRYYMNWVRQAPGKGLQWVAYIDSGGSPTNYADAVKGRFTISRDNAKNTLYLQMNSLRAEDTAVYYCSSFDYWGQGTLVTVSS
VL: B1 VL with L4V, K10N, S11T, I44V, N51S, N52R, H88Q, V94A
B4: PMX076 (antibody, V domains shown)
VH: B3 VH with L27I, N59T, N77K, T78A, S97T
VL: B1 VL with S11N, I44V, N51S, N52S, Y86F, H88Q, V94A
B5: PMX074 (antibody, V domains shown)
VH: EVQLVESGGDLVKPGGSLRLSCVASGFTFSRYYMTWVRQAPGKGLQWVAYINSDRRSTTYADAVKGRFTISRDNAKNTLYLQMNSLRAEDTAVYYCTTLEYWGQGTLVTVSS
VL: B1 VL with S11N, I44V, N51S, N52R, S75N, H88Q, V94A
B6: PMX078 (antibody, V domains shown)
VH: B3 VH with Y33H, N35S, V37I, D52S, P57S, D62G, A63S, I70V, S97T, F99L
VL: B1 VL with S11N, I44V, N51S, N52R, H88Q, V94D
B7: PMX003 mAb (antibody, V domains shown)
VH: EVQLVESGGDLVKPGGSLRLSCVASGITFSRYHMSWVRQAPGKGLQWVAYINSGGSSTSYPDAVKGRFTISRDNAKNTLYLQMDSLRAEDTALYYCTTFDYWGQGTLVTVSS
VL: SYVLTQLPSKNVTLKQPAHITCGGDNIGSKSVHWYQQKLGQAPVLIIYYDSRRPTGIPERFSGANSGNTATLTISGALAEDEADYYCQVWDSSANVFGGGTHLTVLG
B8: PMX070 (antibody, V domains shown)
VH: B7 VH with V2M, I27F, S57P, S59N, P61A, D84N, L93V, F99Y, Y101Q
VL: B1 VL with I44V, N51S, N52S, H88Q, S92T, V94A
B9: PMX079 (antibody, V domains shown)
VH: B7 VH with I27L, Y50F, G55R, S57D, S59T, P61A, D84N, L93V
VL: B1 VL with S11N, I44A, N51S, N52S, H88Q, V94A
B10: PMX001 mAb (antibody, V domains shown)
VH: B7 VH with I27F, R31S, S59T, P61A, N77K, D84N, L93V, T97S
VL: B7 VL with K10R, S51T, A94G
notes: Fully canine mAb; Expressed in CHO cells
B11: PMX004 mAb (antibody, V domains shown)
VH: EVQLVESGGELVKPGGSLRVSCVASGITFSRYHMSWVRQAPGKGLQWVAFINTDRSSPKYADSVKGRFTISRDNAKNTLYLQMNSLRAEDTAIYYCTSFDYWGQGTLVTVSS
VL: B7 VL with R52S
notes: Fully canine mAb with dog IGGB and dog IGLC5 constant regions; Expressed in CHO cells
B12: PMX002 mAb (antibody, V domains shown)
VH: EVQLVESGGDLVKPGGSLRLSCVASGIIFSNYHMSWVRQVPGKGLQWVAYINSGGSTINYADGVKGRFTISRDNAKNSLYLQMNSLRGEDTAVYYCTTYDSWGQGTLVTVSS
VL: B7 VL with R52S, A94V
notes: as for B11
B13: PMX005 mAb (antibody, V domains shown)
VH: B7 VH with I27F, S57D, T58S, S59D, P61A, D84N, L93V, T98S, F99L
VL: B7 VL with R52S, S92R, A94G
notes: as for B11
B14: PMX115 mAb (antibody, V domains shown)
VH: EMQLVESGGALVKPGGSLRLSCVASGFTFRRYHMSWVRQAPGQGLQWVAYIDSDGSPTSYGDSVKGRFTISRDNAKNTLFLQMNSLRVDDTAVYYCTTLDYWGRGTLVTVSS
VL: B1 VL with L7V, S29G, I44L, N51T, N52R, G76R, H88Q, V94G, L106I

Residue numbers refer to the chain shown, from its start.

In the first experiment the target is T1, canine CD20. Nature of the experiment: cell-based or functional assay.
With B1, the “ADCC EC50” value came out at 0.14 nM, the “ADCC Maximum killing (%)” value came to 46%, the “CDC EC50” value was found to be 6.02 nM and the “CDC Maximum killing (%)” value was determined as 98.9%.

Consider B2, for which the “ADCC EC50” value was found to be 0.16 nM, the “ADCC Maximum killing (%)” value stood at 51%, the “CDC EC50” value came to 10.6 nM and the “CDC Maximum killing (%)” value came to 98.5%.

Consider B3, for which the “ADCC EC50” value amounted to 0.13 nM, the “ADCC Maximum killing (%)” value was found to be 50%, the “CDC EC50” value was 21.9 nM and the “CDC Maximum killing (%)” value came to 96.2%.

In the case of B4, the “ADCC EC50” value worked out at 0.14 nM, the “ADCC Maximum killing (%)” value came out at 49%, the “CDC EC50” value was determined as 7.76 nM and the “CDC Maximum killing (%)” value was found to be 98.3%.

As to B5, the “ADCC EC50” value turned out to be 0.12 nM, the “ADCC Maximum killing (%)” value is 51%, the “CDC EC50” value came to 6.8 nM and the “CDC Maximum killing (%)” value was 98.9%.

In the case of B6, the “ADCC EC50” value was determined as 0.22 nM, the “ADCC Maximum killing (%)” value amounted to 40%, the “CDC EC50” value turned out to be 9.08 nM and the “CDC Maximum killing (%)” value stood at 98.8%.

For the molecule B7, the “ADCC EC50” value was 0.89 nM, the “ADCC Maximum killing (%)” value is 34%, the “CDC EC50” value is 25 nM and the “CDC Maximum killing (%)” value was found to be 90.4%.

For B8, the “ADCC EC50” value was determined as 0.29 nM, the “ADCC Maximum killing (%)” value is 51%, the “CDC EC50” value came out at 11.2 nM and the “CDC Maximum killing (%)” value was found to be 97.1%.

With B9, the “ADCC EC50” value was determined as 0.12 nM, the “ADCC Maximum killing (%)” value was found to be 52%, the “CDC EC50” value was 16.4 nM and the “CDC Maximum killing (%)” value was 96.7%.

The target of another experiment is T1, canine CD20. Nature of the experiment: flow cytometry on cCD20-expressing MDCK II cells, 10 ug/ml antibody, FITC anti-canine IgG (FIG. 3A). The protocol: FIG. 3. Binding assessment of anti-canine CD20 mAbs using flow cytometry. PMX001, PMX002, PMX003, PMX004, PMX005, 1 E4-cIGGB, 4E1-7-clGGB (see A) and PMX006, PMX007, PMX008, PMX009, PMX010, PMX011 (see B) and PMX003, PMX066, PMX067, PMX069, PMX070, PMX071, PMX072, PMX073, PMX074, PMX075, PMX076, PMX077, PMX078, PMX079, PMX080, PMX081, 1E4-cIGGB, 4E1-7-clGGB (see C) were applied to cCD20-expressing MDCK II cells at 10 μg/ml. Rituximab-clGGB (grey shadow) was used as the isotype control and presented in each plot. (D) Affinity determination of PMX003, PMX115 and PMX070 mAbs. Binding of 1:2 serially diluted antibodies to cCD20-expressing MDCK II cells was assessed in a binding assay and the mean values of the fluorophore signal was determined. The plot of mean fluorescence intensity (MFI) versus concentration was used to determine EC50 of binding, using non-linear regression, which is the apparent Kd of antibody binding to cell surface expressed canine CD20.
HEK293 cells or MDCK II cells were stably transfected with a vector encoding the full length of canine CD20 cDNA. Binding of antibodies to these cells were assessed using flow cytometry. […] Cells incubated with anti-canine IgG FITC secondary antibody and without primary anti-canine CD20 antibody, or with isotype control primary antibody, were used as negative controls. The data were acquired on either a Beckman Coulter CytoFLEX or a BD Accuri C6 Plus flow cytometer and analysed using FlowJo software. […] Graphs using mean fluorescence intensity (MFI) values of the FITC channel vs concentration of antibody were plotted in GraphPad Prism (FIG. 3D).
B10: the binding result is reported as “binds”.

Take B11: the binding result is “binds”.

As to B12, the binding result is recorded as “binds”.

Regarding B13, the binding result is given as “binds”.

The next experiment has as its target T2, canine CD20. Nature of the experiment: flow cytometry, cCD20-expressing MDCK II cells; apparent Kd (EC50 of binding).
In the case of B14, the Kd is 0.8 nM.

Turning to B7, the Kd amounted to 1.7 nM.

As to B8, the Kd turned out to be 1.1 nM.

Source of the values: US20250297026A1 (PETMEDIX, published 2025).
